Biological target: the molecule itself
Assay: cross-linking

B1: His6-tagged Hsp90β CTD (530–724) (domain or fragment)
chain: not shown
B1: binds.

Reference: PMC6453127 (Biochimica et biophysica acta. General subjects, 2017)
